We go through eight molecules from US20240400715A1 (VIBRANT PHARMA, published 2024).

Changes are numbered by the printed parent chain.

B1: 201 (CEA-Fab-Knob-+Hole) (bispecific antibody, human IgG4 S228P, kappa, F234A L235A)
heavy: EVKLLESGGGLVQPKGSLKLSCAASGFTFNTYAMNWVRQAPGKGLEWVARIRSKYNNYATYYADSVKDRFTISRDDSQSILYLQMNNLKTEDTAMYYCVRHGNFGNSYVSWFAYWGQGTLVTVSSASTKGPSVFPLAPCSRSTSESTAALGCLVKDYFPEPVTVSWNSGALTSGVHTFPAVLQSSGLYSLSSVVTVPSSSLGTKTYTCNVDHKPSNTKVDKRVESKYGPPCPPCPAPEAAGGPSVFLFPPKPKDTLMISRTPEVTCVVVDVSQEDPEVQFNWYVDGVEVHNAKTKPREEQFNSTYRVVSVLTVLHQDWLNGKEYKCKVSNKGLPSSIEKTISKAKGQPREPQVYTLPPCQEEMTKNQVSLWCLVKGFYPSDIAVEWESNGQPENNYKTTPPVLDSDGSFFLYSRLTVDKSRWQEGNVFSCSVMHEALHNHYTQKSLSLSL
chain: ESKYGPPCPPCPAPEAAGGPSVFLFPPKPKDTLMISRTPEVTCVVVDVSQEDPEVQFNWYVDGVEVHNAKTKPREEQFNSTYRVVSVLTVLHQDWLNGKEYKCKVSNKGLPSSIEKTISKAKGQPREPQVCTLPPSQEEMTKNQVSLSCAVKGFYPSDIAVEWESNGQPENNYKTTPPVLDSDGSFFLVSRLTVDKSRWQEGNVFSCSVMHEALHNRFTQKSLSLSL
light: QAVVTQESALTTSPGETVTLTCRSSTGAVTTSNYANWVQEKPDHLFTGLIGGTNKRAPGVPARFSGSLIGDKAALTITGAQTEDEAIYFCALWYSNLWVFGGGTKVEIKRTVAAPSVFIFPPSDEQLKSGTASVVCLLNNFYPREAKVQWKVDNALQSGNSQESVTEQDSKDSTYSLSSTLTLSKADYEKHKVYACEVTHQGLSSPVTKSFNRGECGGGGSGGGGSEVQLVESGGGFVQAGESLTLSCTSSTLTFTPYRMAWYRQAPGKQRDLVADISSGDGRTTNYADFAKGRFTISRDNIKNTVFLRMTNLKPEDTAVYYCNTFVSFVGIARSWGQGTQVTVSS
notes: VHH fused after CL of the light chain
B2: 205 (CEA-Fab-Knob-+Hole) (bispecific antibody, human IgG4 S228P, kappa, F234A L235A)
heavy: EVQLVESGGGFVQAGESLTLSCTSSTLTFTPYRMAWYRQAPGKQRDLVADISSGDGRTTNYADFAKGRFTISRDNIKNTVFLRMTNLKPEDTAVYYCNTFVSFVGIARSWGQGTQVTVSSGGGGSGGGGSEVKLLESGGGLVQPKGSLKLSCAASGFTFNTYAMNWVRQAPGKGLEWVARIRSKYNNYATYYADSVKDRFTISRDDSQSILYLQMNNLKTEDTAMYYCVRHGNFGNSYVSWFAYWGQGTLVTVSSASTKGPSVFPLAPCSRSTSESTAALGCLVKDYFPEPVTVSWNSGALTSGVHTFPAVLQSSGLYSLSSVVTVPSSSLGTKTYTCNVDHKPSNTKVDKRVESKYGPPCPPCPAPEAAGGPSVFLFPPKPKDTLMISRTPEVTCVVVDVSQEDPEVQFNWYVDGVEVHNAKTKPREEQFNSTYRVVSVLTVLHQDWLNGKEYKCKVSNKGLPSSIEKTISKAKGQPREPQVYTLPPCQEEMTKNQVSLWCLVKGFYPSDIAVEWESNGQPENNYKTTPPVLDSDGSFFLYSRLTVDKSRWQEGNVFSCSVMHEALHNHYTQKSLSLSL
chain: B1 chain
light: QAVVTQESALTTSPGETVTLTCRSSTGAVTTSNYANWVQEKPDHLFTGLIGGTNKRAPGVPARFSGSLIGDKAALTITGAQTEDEAIYFCALWYSNLWVFGGGTKVEIKRTVAAPSVFIFPPSDEQLKSGTASVVCLLNNFYPREAKVQWKVDNALQSGNSQESVTEQDSKDSTYSLSSTLTLSKADYEKHKVYACEVTHQGLSSPVTKSFNRGEC
notes: VHH fused before VH of the heavy chain
B3: 203 (CEA-Fab-Knob-+Hole) (bispecific antibody, human IgG4 S228P, kappa, F234A L235A)
heavy: B1 heavy
chain: B1 chain
light: EVQLVESGGGFVQAGESLTLSCTSSTLTFTPYRMAWYRQAPGKQRDLVADISSGDGRTTNYADFAKGRFTISRDNIKNTVFLRMTNLKPEDTAVYYCNTFVSFVGIARSWGQGTQVTVSSGGGGSGGGGSQAVVTQESALTTSPGETVTLTCRSSTGAVTTSNYANWVQEKPDHLFTGLIGGTNKRAPGVPARFSGSLIGDKAALTITGAQTEDEAIYFCALWYSNLWVFGGGTKVEIKRTVAAPSVFIFPPSDEQLKSGTASVVCLLNNFYPREAKVQWKVDNALQSGNSQESVTEQDSKDSTYSLSSTLTLSKADYEKHKVYACEVTHQGLSSPVTKSFNRGEC
notes: VHH fused before VL of the light chain
B4: 204 (Knob+CEA-Fab-Hole) (bispecific antibody, human IgG4 S228P, kappa, F234A L235A)
chain: B1 chain with C131Y, S136C, S148W, A150L, V189Y, R217H, F218Y
heavy: B1 heavy with Y354C, C359S, W371S, L373A, Y412V, H440R, Y441F
light: B3 light
notes: as for B3
B5: 206 (Knob+CEA-Fab-Hole) (bispecific antibody, human IgG4 S228P, kappa, F234A L235A)
chain: B1 chain with C131Y, S136C, S148W, A150L, V189Y, R217H, F218Y
heavy: B2 heavy with Y484C, C489S, W501S, L503A, Y542V, H570R, Y571F
light: B2 light
notes: as for B2
B6: 202 (Knob+CEA-Fab-Hole) (bispecific antibody, human IgG4 S228P, kappa, F234A L235A)
chain: B1 chain with C131Y, S136C, S148W, A150L, V189Y, R217H, F218Y
heavy: B1 heavy with Y354C, C359S, W371S, L373A, Y412V, H440R, Y441F
light: B1 light
notes: as for B1
B7: 208 (Fab (Heavy)-Knob+Fab (Light)-Hole-CEA) (bispecific antibody, human IgG4 S228P, kappa, F234A L235A)
heavy: B1 heavy
light: QAVVTQESALTTSPGETVTLTCRSSTGAVTTSNYANWVQEKPDHLFTGLIGGTNKRAPGVPARFSGSLIGDKAALTITGAQTEDEAIYFCALWYSNLWVFGGGTKVEIKRTVAAPSVFIFPPSDEQLKSGTASVVCLLNNFYPREAKVQWKVDNALQSGNSQESVTEQDSKDSTYSLSSTLTLSKADYEKHKVYACEVTHQGLSSPVTKSFNRGECESKYGPPCPPCPAPEAAGGPSVFLFPPKPKDTLMISRTPEVTCVVVDVSQEDPEVQFNWYVDGVEVHNAKTKPREEQFNSTYRVVSVLTVLHQDWLNGKEYKCKVSNKGLPSSIEKTISKAKGQPREPQVCTLPPSQEEMTKNQVSLSCAVKGFYPSDIAVEWESNGQPENNYKTTPPVLDSDGSFFLVSRLTVDKSRWQEGNVFSCSVMHEALHNRFTQKSLSLSLGGGGSGGGGSEVQLVESGGGFVQAGESLTLSCTSSTLTFTPYRMAWYRQAPGKQRDLVADISSGDGRTTNYADFAKGRFTISRDNIKNTVFLRMTNLKPEDTAVYYCNTFVSFVGIARSWGQGTQVTVSS
notes: two-chain format: VL-CL fused to hole Fc and VHH
B8: 209 (Fab (Light)-Knob-CEA+Fab (Heavy)-Hole) (bispecific antibody, human IgG4 S228P, kappa, F234A L235A)
light: B7 light with C347Y, S352C, S364W, A366L, V405Y, R433H, F434Y
heavy: B1 heavy with Y354C, C359S, W371S, L373A, Y412V, H440R, Y441F
notes: two-chain format: VL-CL fused to knob Fc and VHH

In one test the target is T1, human CD3ε/δ (ACRO systems, CDD-H52W1) (human, UniProt P07766 23-126; P04234 22-105).
T1 construct: bought recombinant heterodimer; also called human CD3 epsilon/delta; Human CD3ε/CD3δ
The experiment in a line: serum-stability ELISA, Day 1 vs Day 0.
Experimental: (§1) The samples to be tested were centrifuged at 4° C. at 12000 rpm for 30 minutes to remove the precipitate. 200 μl of each sample to be tested (0.5 mg/ml) was collected in a 1.5 ml Eppendorf tube. An equal volume of human serum (GEMINI, H2OYOOK) was added, mixed thoroughly, and the mixture was incubated in a 37° C. constant temperature CO₂ incubator. For a total of 10 days, 40 μl samples was aspirated every day and stored at −20° C.
(§2) Enzyme-linked immunosorbent assay (ELISA) was used to test the bispecific antibodies' binding to human CEA and human CD3 epsilon/delta antigen. The steps are as follows: the antigen human CD3ε/δ (ACRO systems, CDD-H52W1) and the recombinant tumor antigen human CEA (CEACAM-5/CD66e, ACRO systems, CE5-H5226) were diluted to 1 μg/ml with PBS, and then added to the 96-well plate at 100 μl per well. The wells were coated overnight at 4° C. After washing 3 times with 0.05% PBST, 200 μl 5% skimmed milk powder was added to each well and incubated at 37° C. for 2 h. After washing 3 times with 0.05% PBST, 100 μl primary antibody sample (10 μg/ml) was added to each well, and incubated at 37° C. for 2 h. After washing 3 times with 0.05% PBST, 100 μl (1:6000) diluted secondary antibody goat anti-human Fc-HRP (sigma, A2170) was added to each well, incubated at room temperature for 1 h. After washing 8 times with 0.05% PBST, 50 μl TMB color developing solution was added to each well, and incubated at room temperature for 10-15 min. 50 μl 1 mM HCl was added to each well to stop the color development. 450 nm Absorbance (OD) was read.
(§3) The binding of antibodies to antigen was calculated according to the following formula: Binding (%)=[(ODdayn−ODb)/(ODday0−ODb)]×100%. ODdayn: experimental well (the protein was stored in the serum for n days); ODday0: control well (the protein was not stored in the serum); ODb: blank well (no primary antibody added).
Molecule B1 had a Binding % of 104%.
As to B2, the Binding % worked out at 96.5%.
In turn, B3 showed a Binding % of 103%.
In turn, B4 showed a Binding % of 105%.
For the molecule B5, the Binding % worked out at 95.1%.
As to B6, the Binding % came to 108%.
Still for that read-out and setting: under B7 stands 95.7%.
In turn, B8 gave a Binding % of 102%.

For another test, the target named is T1, human CD3ε/δ (ACRO systems, CDD-H52W1). The experiment in a line: serum-stability ELISA, Day 2 vs Day 0. (In an ELISA, binding on a coated surface is turned into a signal by an enzyme label.)
Experimental: as §1, §2, §3
B1 yielded a Binding % of 76.3%.
Take B2: the Binding % is 99.3%.
In turn, B3 gave a Binding % of 85.3%.
For B4, the Binding % was 102%.
In the case of B5, the Binding % is 95.1%.
For B6, the Binding % was 86.8%.
With B7, the Binding % was 96.1%.
Consider B8, for which the Binding % was 103%.

A further test has the same target. The test can be described thus: serum-stability ELISA, Day 5 vs Day 0.
Experimental: as §1, §2, §3
As to B1, the Binding % was 105%.
Molecule B2 returned a Binding % of 117%.
B3 displayed a Binding % of 102%.
Same read-out and setting: next, B4: 99.8%; B5: 102%.
B6 came in with a Binding % of 110%.
The molecule B7 gave a Binding % of 100%.
Same read-out and setting: next, B8: 108%.

The next test has the same target. The test can be described thus: serum-stability ELISA, Day 6 vs Day 0.
Experimental: as §1, §2, §3
For B1, the Binding % is 102%.
Still for that read-out and setting: next, B2: 100%; B3: 101%; B4: 103%.
Regarding B5, the Binding % is 99.3%.
Molecule B6 displayed a Binding % of 108%.
Molecule B7 came in with a Binding % of 97.4%.
The molecule B8 displayed a Binding % of 105%.

For a further test the target is unchanged. The experiment in a line: serum-stability ELISA, Day 7 vs Day 0.
Experimental: as §1, §2, §3
As to B1, the Binding % is 104%.
On to B2, for which the Binding % stood at 105%.
Still for that read-out and setting: under B3 stands 106%; under B4, 103%; under B5, 100%.
In the case of B6, the Binding % came out at 108%.
In turn, B7 registered a Binding % of 95.9%.
Still for that read-out and setting: next, B8: 109%.

For a further test the target is unchanged. The test can be described thus: serum-stability ELISA, Day 9 vs Day 0.
Experimental: as §1, §2, §3
On to B1, for which the Binding % turned out to be 101%.
Regarding B2, the Binding % came to 105%.
For the molecule B3, the Binding % is 103%.
Regarding B4, the Binding % is 105%.
For the molecule B5, the Binding % was determined as 95.6%.
Regarding B6, the Binding % amounted to 104%.
Molecule B7 gave a Binding % of 98.8%.
On the same count and under the same terms, under B8 stands 108%.

The target is the same in a further test. The experiment in a line: serum-stability ELISA, Day 10 vs Day 0.
Experimental: as §1, §2, §3
With B1, the Binding % was determined as 98.8%.
Take B2: the Binding % came to 105%.
B3 had a Binding % of 101%.
Regarding B4, the Binding % was 99.4%.
Same read-out and setting: next, B5: 91.6%; B6: 99.1%.
As for B7, the Binding % was 95.7%.
On the same count and under the same terms, under B8 stands 107%.

For the next test the target is unchanged. The test can be described thus: serum-stability ELISA, Day 0 (reference).
For the molecule B1, the Binding % turned out to be 100%.
In turn, B2 registered a Binding % of 100%.
Regarding B3, the Binding % amounted to 100%.
B4 had a Binding % of 100%.
Same read-out and setting: under B5 stands 100%; under B6, 100%; under B7, 100%.
In the case of B8, the Binding % came out at 100%.
